Data: patent US6423315 (UNIVERSITY OF TENNESSEE RESEARCH, dated 2002)
Ends that are not written are not given here.

Target: I-A^q molecule of MHC (mouse (DBA/1))
Assay: cell-based or functional assay

IL-2 U/ml, T-cell hybridoma 2qCII92.33, molar ratio competitor:CII 245-270 1.6:1: 160 U/ml | IL-2 U/ml, T-cell hybridoma 2qCII92.33, molar ratio competitor:CII 245-270 3.2:1: 160 U/ml | IL-2 U/ml, T-cell hybridoma 2qCII92.33, molar ratio competitor:CII 245-270 6.5:1: 160 U/ml | IL-2 U/ml, T-cell hybridoma 2qCII92.33, molar ratio competitor:CII 245-270 13:1: 160 U/ml | IL-2 U/ml, T-cell hybridoma qCII85.33, molar ratio competitor:CII 245-270 1.6:1: 640 U/ml | IL-2 U/ml, T-cell hybridoma qCII85.33, molar ratio competitor:CII 245-270 3.2:1: 640 U/ml | IL-2 U/ml, T-cell hybridoma qCII85.33, molar ratio competitor:CII 245-270 6.5:1: 640 U/ml | IL-2 U/ml, T-cell hybridoma qCII85.33, molar ratio competitor:CII 245-270 13:1: 640 U/ml | IL-2 U/ml, T-cell hybridoma qCII98.10, molar ratio competitor:CII 245-270 1.6:1: 160 U/ml | IL-2 U/ml, T-cell hybridoma qCII98.10, molar ratio competitor:CII 245-270 3.2:1: 160 U/ml | IL-2 U/ml, T-cell hybridoma qCII98.10, molar ratio competitor:CII 245-270 6.5:1: 160 U/ml | IL-2 U/ml, T-cell hybridoma qCII98.10, molar ratio competitor:CII 245-270 13:1: 160 U/ml
Binder: PTGPLGPKGQTGELGIAGFKGDTGAK (not fully specified) [CII 245-270 [s266, 267, 269]]
